Target: Cy3–Cy5 labeled nucleosome containing H3KC36me3 (human) (UniProt Q71DI3)
Test: other fluorescence titration

Kd: 20 µM
S1/2 of the PHF1(2–87) titration at constant LexA: 16 µM
Substance: PHF1(2–87) (domain or fragment)

Source: PMC5397176
